# The Human Domainome abundance scans (Beltran et al. 2025)
# ± gives the uncertainty stated by the source.
# B1: Androgen receptor, residues 557 to 632; numbered along this chain, P10275 (parent)
# chain: QKTCLICGDEASGCHYGALTCGSCKVFFKRAAEGKQKYLCASRNDCTIDKFRRKNCPSCRLRKCYEAGMTLGARKL
# Variants of: B1
# Assay: abundance fitness (aPCA) (normalised: wild type 0, dead -1); higher = more abundant; growth selection in yeast, the domain comes from the species named
# Settings: Homo sapiens
row,Variant,abundance fitness
1,QKTCLICGDEASGCHYGALTCGSCKVFFKRAAEGKQKYLCASRNDCTIDKFRRKNQPSCRLRKCYEAGMTLGARKL [C56Q],-1.01 ± 0.32
2,QKTCLICGDEASGCHYGALTCGSCKVFFKRAAEGKQKYLCASRNDCTIDKFRRKNNPSCRLRKCYEAGMTLGARKL [C56N],-0.968 ± 0.24
3,QKTCLICGDEASGCHYGALTCGSCKVFFKRAAEGKQKYLCASRNDCTIDKFRRKNVPSCRLRKCYEAGMTLGARKL [C56V],-1.15 ± 0.31
4,QKTCLICGDEASGCHYGALTCGSCKVFFKRAAEGKQKYLCASRNDCTIDKFRRKNSPSCRLRKCYEAGMTLGARKL [C56S],-0.776 ± 0.12
5,QKTCLICGDEASGCHYGALTCGSCKVFFKRAAEGKQKYLCASRNDCTIDKFRRKNMPSCRLRKCYEAGMTLGARKL [C56M],-0.662 ± 0.24
6,QKTCLICGDEASGCHYGALTCGSCKVFFKRAAEGKQKYLCASRNDCTIDKFRRKNPPSCRLRKCYEAGMTLGARKL [C56P],-0.812 ± 0.22
7,QKTCLICGDEASGCHYGALTCGSCKVFFKRAAEGKQKYLCASRNDCTIDKFRRKNGPSCRLRKCYEAGMTLGARKL [C56G],-1.05 ± 0.29
8,QKTCLICGDEASGCHYGALTCGSCKVFFKRAAEGKQKYLCASRNDCTIDKFRRKNWPSCRLRKCYEAGMTLGARKL [C56W],-0.964 ± 0.47
9,QKTCLICGDEASGCHYGALTCGSCKVFFKRAAEGKQKYLCASRNDCTIDKFRRKNLPSCRLRKCYEAGMTLGARKL [C56L],-0.498 ± 0.12
10,QKTCLICGDEASGCHYGALTCGSCKVFFKRAAEGKQKYLCASRNDCTIDKFRRKNAPSCRLRKCYEAGMTLGARKL [C56A],-0.533 ± 0.18
11,QKTCLICGDEASGCHYGALTCGSCKVFFKRAAEGKQKYLCASRNDCTIDKFRRKNIPSCRLRKCYEAGMTLGARKL [C56I],-0.782 ± 0.22
12,QKTCLICGDEASGCHYGALTCGSCKVFFKRAAEGKQKYLCASRNDCTIDKFRRKNDPSCRLRKCYEAGMTLGARKL [C56D],-0.663 ± 0.22
13,QKTCLICGDEASGCHYGALTCGSCKVFFKRAAEGKQKYLCASRNDCTIDKFRRKNKPSCRLRKCYEAGMTLGARKL [C56K],-0.848 ± 0.37
14,QKTCLICGDEASGCHYGALTCGSCKVFFKRAAEGKQKYLCASRNDCTIDKFRRKNTPSCRLRKCYEAGMTLGARKL [C56T],-0.562 ± 0.16
15,QKTCLICGDEASGCHYGALTCGSCKVFFKRAAEGKQKYLCASRNDCTIDKFRRKNRPSCRLRKCYEAGMTLGARKL [C56R],-1.02 ± 0.21
16,QKTCLICGDEASGCHYGALTCGSCKVFFKRAAEGKQKYLCASRNDCTIDKFRRKNFPSCRLRKCYEAGMTLGARKL [C56F],-0.938 ± 0.22
17,QKTCLICGDEASGCHYGALTCGSCKVFFKRAAEGKQKYLCASRNDCTIDKFRRKNHPSCRLRKCYEAGMTLGARKL [C56H],-0.804 ± 0.28
18,QKTCLICGDEASGCHYGALTCGSCKVFFKRAAEGKQKYLCASRNDCTIDKFRRKNCPSCRLRCCYEAGMTLGARKL [K63C],-0.143 ± 0.087

row,Variant,abundance fitness
1,QKTCLICGDEASGCHYGALTCGSCKVFFKRAAEGKQKYLCASRNDCTIDKFRRKNCPSCRLRACYEAGMTLGARKL [K63A],-0.141 ± 0.084
2,QKTCLICGDEASGCHYGALTCGSCKVFFKRAAEGKQKYLCASRNDCTIDKFRRKNCPGCRLRKCYEAGMTLGARKL [S58G],0.059 ± 0.071
3,QKTCLICGDEASGCHYGALTCGSCKVFFKRAAEGKQKYLCASRNDCTIDKFRRKNCPWCRLRKCYEAGMTLGARKL [S58W],-0.458 ± 0.16
4,QKTCLICGDEASGCHYGALTCGSCKVFFKRAAEGKQKYLCASRNDCTIDKFRRKNCPECRLRKCYEAGMTLGARKL [S58E],0.133 ± 0.12
5,QKTCLICGDEASGCHYGALTCGSCKVFFKRAAEGKQKYLCASRNDCTIDKFRRKNCPLCRLRKCYEAGMTLGARKL [S58L],-0.251 ± 0.059
6,QKTCLICGDEASGCHYGALTCGSCKVFFKRAAEGKQKYLCASRNDCTIDKFRRKNCPYCRLRKCYEAGMTLGARKL [S58Y],-0.202 ± 0.064
7,QKTCLICGDEASGCHYGALTCGSCKVFFKRAAEGKQKYLCASRNDCTIDKFRRKNCPPCRLRKCYEAGMTLGARKL [S58P],0.013 ± 0.062
8,QKTCLICGDEASGCHYGALTCGSCKVFFKRAAEGKQKYLCASRNDCTIDKFRRKNCPVCRLRKCYEAGMTLGARKL [S58V],-0.16 ± 0.085
9,QKTCLICGDEASGCHYGALTCGSCKVFFKRAAEGKQKYLCASRNDCTIDKFRRKNCPCCRLRKCYEAGMTLGARKL [S58C],0.075 ± 0.081
10,QKTCLICGDEASGCHYGALTCGSCKVFFKRAAEGKQKYLCASRNDCTIDKFRRKNCPTCRLRKCYEAGMTLGARKL [S58T],-0.229 ± 0.068
11,QKTCLICGDEASGCHYGALTCGSCKVFFKRAAEGKQKYLCASRNDCTIDKFRRKNCPQCRLRKCYEAGMTLGARKL [S58Q],-0.134 ± 0.083
12,QKTCLICGDEASGCHYGALTCGSCKVFFKRAAEGKQKYLCASRNDCTIDKFRRKNCPHCRLRKCYEAGMTLGARKL [S58H],-0.112 ± 0.061
13,QKTCLICGDEASGCHYGALTCGSCKVFFKRAAEGKQKYLCASRNDCTIDKFRRKNCPACRLRKCYEAGMTLGARKL [S58A],-0.035 ± 0.068
14,QKTCLICGDEASGCHYGALTCGSCKVFFKRAAEGKQKYLCASRNDCTIDKFRRKNCPICRLRKCYEAGMTLGARKL [S58I],-0.577 ± 0.098
15,QKTCLICGDEASGCHYGALTCGSCKVFFKRAAEGKQKYLCASRNDCTIDKFRRKNCPNCRLRKCYEAGMTLGARKL [S58N],-0.189 ± 0.062
16,QKTCLICGDEASGCHYGALTCGSCKVFFKRAAEGKQKYLCASRNDCTIDKFRRKNCPDCRLRKCYEAGMTLGARKL [S58D],-0.029 ± 0.074
17,QKTCLICGDEASGCHYGALTCGSCKVFFKRAAEGKQKYLCASRNDCTIDKFRRKNCPKCRLRKCYEAGMTLGARKL [S58K],-0.125 ± 0.097
18,QKTCLICGDEASGCHYGALTCGSCKVFFKRAAEGKQKYLCASRNDCTIDKFRRKNCPRCRLRKCYEAGMTLGARKL [S58R],-0.09 ± 0.059
